Values of other authors as cited in patent US20190360013.

System: mEcSSB (monomeric E. coli SSB) (Escherichia coli)
Settings: CITED; at ion concentrations optimal for TdT; footprint 65 nt

## ssDNA (65-nt footprint)
  Kd: < 1 pM
